This note sets out measurements from US20100291103A1 (DOMANTIS, published 2010).

The target of experiment [1] is T1, TNFR1-FC fusion (human TNFR1 receptor binding assay) (human, UniProt P19438 22-211, limits assumed).
T1 construct: also called TNFR1 (RBA); not shown: Fc part, captured by goat anti-human IgG (H&L); not described further
T1 sequence (looked up): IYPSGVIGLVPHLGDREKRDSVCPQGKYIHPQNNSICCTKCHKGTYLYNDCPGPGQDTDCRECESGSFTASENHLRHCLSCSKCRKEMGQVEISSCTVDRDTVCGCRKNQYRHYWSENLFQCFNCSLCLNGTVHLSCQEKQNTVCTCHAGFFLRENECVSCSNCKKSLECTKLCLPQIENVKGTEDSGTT
In words: RBA assay; taken as the value of the Fc fusion.

Experiment [2] concerns the target T2, TNFR1 on MRC-5 cells (UniProt P19438 30-455, limits assumed).
T2 sequence (looked up): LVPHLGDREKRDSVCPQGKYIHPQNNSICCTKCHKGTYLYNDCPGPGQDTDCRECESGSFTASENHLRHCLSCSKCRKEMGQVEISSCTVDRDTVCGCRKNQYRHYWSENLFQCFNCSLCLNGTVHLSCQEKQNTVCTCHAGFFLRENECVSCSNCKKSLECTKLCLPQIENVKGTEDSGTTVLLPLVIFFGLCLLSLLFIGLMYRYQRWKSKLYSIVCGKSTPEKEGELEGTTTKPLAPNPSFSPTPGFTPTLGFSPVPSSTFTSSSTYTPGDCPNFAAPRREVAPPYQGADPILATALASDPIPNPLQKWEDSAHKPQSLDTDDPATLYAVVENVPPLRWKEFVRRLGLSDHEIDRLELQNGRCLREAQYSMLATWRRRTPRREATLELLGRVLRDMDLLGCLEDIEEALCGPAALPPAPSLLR
Nature of the experiment: cell-based or functional assay.

B1: DMS1544 (DOM1h-131-206 Fc fusion) (Fc fusion, not shown: a dimerising Fc or GST)
chain: EVQLLESGGGLVQPGGSLRLSCAASGFTFAHETMVWVRQAPGKGLEWVSHIPPDGQDPFYADSVKGRFTISRDNSKNTLYLQMNSLRAEDTAVYHCALLPKRGPWFDYWGQGTLVTVSSASTHTCPPCPAPELLGGP
notes: Dimeric Fc fusion
For B1, the “Activity (nM), RBA” value in experiment [1] turned out to be 0.047 nM.

B2: DOM1h-131-206 (other)
VH: EVQLLESGGGLVQPGGSLRLSCAASGFTFAHETMVWVRQAPGKGLEWVSHIPPDGQDPFYADSVKGRFTISRDNSKNTLYLQMNSLRAEDTAVYHCALLPKRGPWFDYWGQGTLVTVSS
Take B2: the “ND50, MRC-5 cell-based assay (TNFα stimulated IL-8 release)” value in experiment [2] amounted to 0.71 nM.
